T1: PDZD2_5, O15018
T1 sequence (O15018 2617-2716, limits assumed, looked up): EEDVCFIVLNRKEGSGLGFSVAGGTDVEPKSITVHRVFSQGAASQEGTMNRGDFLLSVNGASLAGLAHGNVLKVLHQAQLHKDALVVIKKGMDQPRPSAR

T2: PDZD4, Q76G19
T2 sequence (Q76G19 125-224, limits assumed, looked up): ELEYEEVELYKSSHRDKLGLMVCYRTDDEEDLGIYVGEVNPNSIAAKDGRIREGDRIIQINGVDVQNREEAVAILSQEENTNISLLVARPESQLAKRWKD

T3: MAGI2_1, Q86UL8
T3 sequence (Q86UL8 12-111, limits assumed, looked up): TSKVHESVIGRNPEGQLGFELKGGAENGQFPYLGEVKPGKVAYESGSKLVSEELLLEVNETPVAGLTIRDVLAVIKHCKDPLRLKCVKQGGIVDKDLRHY

T4: MPDZ_11, O75970
T4 sequence (O75970 1720-1817, limits assumed, looked up): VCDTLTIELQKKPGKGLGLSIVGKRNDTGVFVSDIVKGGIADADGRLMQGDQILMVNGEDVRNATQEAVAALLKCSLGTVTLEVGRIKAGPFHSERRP

T5: MPDZ_3, O75970
T5 sequence (O75970 372-473, limits assumed, looked up): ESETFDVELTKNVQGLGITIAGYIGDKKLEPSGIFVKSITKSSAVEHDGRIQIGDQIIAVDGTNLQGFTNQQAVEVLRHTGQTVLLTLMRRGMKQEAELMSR

T6: APBA3_2, O96018
T6 sequence (O96018 480-570, limits assumed, looked up): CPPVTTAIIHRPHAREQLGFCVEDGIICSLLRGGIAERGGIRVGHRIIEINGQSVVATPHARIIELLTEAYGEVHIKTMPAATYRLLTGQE

T7: PDZD2_4, O15018
T7 sequence (O15018 723-823, limits assumed, looked up): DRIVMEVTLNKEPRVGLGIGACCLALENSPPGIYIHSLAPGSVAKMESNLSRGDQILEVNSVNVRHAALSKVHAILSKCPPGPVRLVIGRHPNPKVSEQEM

T8: PDZRN3_2, Q9UPQ7
T8 sequence (Q9UPQ7 414-513, limits assumed, looked up): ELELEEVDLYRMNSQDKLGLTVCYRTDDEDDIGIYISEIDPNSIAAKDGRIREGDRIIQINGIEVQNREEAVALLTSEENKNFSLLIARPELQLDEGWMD

T9: SHROOM2, Q13796
T9 sequence (Q13796 21-118, limits assumed, looked up): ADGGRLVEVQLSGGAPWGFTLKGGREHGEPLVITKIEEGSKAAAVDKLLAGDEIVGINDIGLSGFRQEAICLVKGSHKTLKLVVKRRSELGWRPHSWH

T10: PDZD2_1, O15018
T10 sequence (O15018 80-192, limits assumed, looked up): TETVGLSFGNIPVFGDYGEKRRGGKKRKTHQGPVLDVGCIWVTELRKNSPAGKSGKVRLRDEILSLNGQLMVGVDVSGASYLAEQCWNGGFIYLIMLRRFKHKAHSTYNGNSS

T11: PDZD2_6, O15018
T11 sequence (O15018 2745-2839, limits assumed, looked up): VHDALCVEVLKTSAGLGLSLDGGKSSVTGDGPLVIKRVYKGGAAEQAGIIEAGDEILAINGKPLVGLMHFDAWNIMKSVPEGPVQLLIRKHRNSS

T12: NHERF1_1, O14745
T12 sequence (O14745 9-104, limits assumed, looked up): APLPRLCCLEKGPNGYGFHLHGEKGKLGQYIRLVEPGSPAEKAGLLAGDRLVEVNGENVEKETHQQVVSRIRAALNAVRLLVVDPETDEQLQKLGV

T13: SYNPO2L, Q9H987
T13 sequence (Q9H987 1-98, limits assumed, looked up): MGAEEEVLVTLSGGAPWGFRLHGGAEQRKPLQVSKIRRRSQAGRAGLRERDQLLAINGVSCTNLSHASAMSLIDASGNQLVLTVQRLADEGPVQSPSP

T14: SYNJ2BP, P57105
T14 sequence (P57105 8-110, limits assumed, looked up): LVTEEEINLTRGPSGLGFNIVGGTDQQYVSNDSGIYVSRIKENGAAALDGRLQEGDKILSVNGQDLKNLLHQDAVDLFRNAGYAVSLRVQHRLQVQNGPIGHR

T15: TJP3_1, O95049
T15 sequence (O95049 6-103, limits assumed, looked up): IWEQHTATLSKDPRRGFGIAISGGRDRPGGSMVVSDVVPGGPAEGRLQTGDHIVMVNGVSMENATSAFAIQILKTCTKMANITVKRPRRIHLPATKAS


Experiments:
Assay in all cases: holdup assay
Design in all cases: key: below the threshold = too weak to quantify, mostly under pKd 3.1 to 4
Settings in all cases: plain residues with an end cap or a label only (N-terminal biotin on a linker: ttds)
MAGIX, Q9H6Y5 = biological target: MAGIX, Q9H6Y5
PDZD2_5, O15018 = biological target: T1, PDZD2_5, O15018
PDZD4, Q76G19 = biological target: T2, PDZD4, Q76G19
MAGI2_1, Q86UL8 = biological target: T3, MAGI2_1, Q86UL8
MPDZ_11, O75970 = biological target: T4, MPDZ_11, O75970
MPDZ_3, O75970 = biological target: T5, MPDZ_3, O75970
APBA3_2, O96018 = biological target: T6, APBA3_2, O96018
PDZD2_4, O15018 = biological target: T7, PDZD2_4, O15018
PDZRN3_2, Q9UPQ7 = biological target: T8, PDZRN3_2, Q9UPQ7
TJP1_1, Q07157 = biological target: TJP1_1, Q07157
SHROOM2, Q13796 = biological target: T9, SHROOM2, Q13796
PDZD9, Q8IXQ8 = biological target: PDZD9, Q8IXQ8
NHERF4_3, Q86UT5 = biological target: NHERF4_3, Q86UT5
SCRIB_4, Q14160 = biological target: SCRIB_4, Q14160
RGS3, P49796-9 = biological target: RGS3, P49796-9
PDZD2_1, O15018 = biological target: T10, PDZD2_1, O15018
PDZD2_6, O15018 = biological target: T11, PDZD2_6, O15018
NHERF1_1, O14745 = biological target: T12, NHERF1_1, O14745
SYNPO2L, Q9H987 = biological target: T13, SYNPO2L, Q9H987
SYNJ2BP, P57105 = biological target: T14, SYNJ2BP, P57105
TJP3_1, O95049 = biological target: T15, TJP3_1, O95049

Sequence of NHERF4_3, Q86UT5 (Q86UT5 325-412): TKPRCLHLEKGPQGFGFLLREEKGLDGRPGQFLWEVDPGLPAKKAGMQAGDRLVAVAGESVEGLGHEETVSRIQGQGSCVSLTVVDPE
Sequence of SCRIB_4, Q14160 (Q14160 1095-1204): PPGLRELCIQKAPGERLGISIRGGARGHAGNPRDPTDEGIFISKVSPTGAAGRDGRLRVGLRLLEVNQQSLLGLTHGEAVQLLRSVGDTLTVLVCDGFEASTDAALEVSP
Sequence of TJP1_1, Q07157 (Q07157 18-120): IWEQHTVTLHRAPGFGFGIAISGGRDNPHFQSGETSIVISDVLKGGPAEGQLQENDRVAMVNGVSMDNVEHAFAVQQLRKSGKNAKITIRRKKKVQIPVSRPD
Sequence of PDZD9, Q8IXQ8 (Q8IXQ8 23-120): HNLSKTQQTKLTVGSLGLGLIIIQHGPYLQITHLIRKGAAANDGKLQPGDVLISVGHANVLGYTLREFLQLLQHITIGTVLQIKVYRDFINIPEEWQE
Sequence of MAGIX, Q9H6Y5 (Q9H6Y5 118-211): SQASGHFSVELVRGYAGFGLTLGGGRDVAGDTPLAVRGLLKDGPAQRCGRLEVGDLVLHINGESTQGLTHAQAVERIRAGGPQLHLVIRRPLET
Sequence of RGS3, P49796-9 (P49796 other isoform, or with tags, fused parts or gaps): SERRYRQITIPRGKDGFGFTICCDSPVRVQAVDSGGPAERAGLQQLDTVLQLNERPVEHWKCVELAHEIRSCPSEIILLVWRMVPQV

| Binder | pKd (MAGIX, Q9H6Y5) | pKd (PDZD2_5, O15018) | pKd (PDZD4, Q76G19) | pKd (MAGI2_1, Q86UL8) | pKd (MPDZ_11, O75970) | pKd (MPDZ_3, O75970) | pKd (APBA3_2, O96018) | pKd (PDZD2_4, O15018) | pKd (PDZRN3_2, Q9UPQ7) | pKd (TJP1_1, Q07157) | pKd (SHROOM2, Q13796) | pKd (PDZD9, Q8IXQ8) | pKd (NHERF4_3, Q86UT5) | pKd (SCRIB_4, Q14160) | pKd (RGS3, P49796-9) | pKd (PDZD2_1, O15018) | pKd (PDZD2_6, O15018) | pKd (NHERF1_1, O14745) | pKd (SYNPO2L, Q9H987) | pKd (SYNJ2BP, P57105) | other results |
| --- | --- | --- | --- | --- | --- | --- | --- | --- | --- | --- | --- | --- | --- | --- | --- | --- | --- | --- | --- | --- | --- |
| RRVRKLPSTTL [RPS6KA1, Q15418] | below the threshold | below the threshold | below the threshold | below the threshold | 3.58 | 3.81 | below the threshold | below the threshold | below the threshold | below the threshold | 3.61 | below the threshold | below the threshold | below the threshold | below the threshold | below the threshold | below the threshold | below the threshold | below the threshold | 3.82 | pKd (TJP3_1, O95049): below the threshold |
| QPGTPTRTAV [MAP2K2, P36507] | below the threshold | below the threshold | 4.21 | below the threshold | below the threshold | below the threshold | below the threshold | below the threshold | below the threshold | below the threshold | below the threshold | below the threshold | below the threshold | below the threshold | below the threshold | below the threshold | below the threshold | below the threshold | below the threshold | below the threshold | pKd (TJP3_1, O95049): below the threshold |
| SEKHFRETEV [HTLV1-TAX1, P03409] | below the threshold | 4.16 | below the threshold | below the threshold | 4.25 | 3.92 | below the threshold | below the threshold | below the threshold | below the threshold | below the threshold | below the threshold | 3.83 | 4.43 | below the threshold | below the threshold | below the threshold | below the threshold | below the threshold | 6.04 | pKd (TJP3_1, O95049): below the threshold |
| CLDTSRETDL [KCNA5, P22460] | below the threshold | below the threshold | below the threshold | below the threshold | below the threshold | below the threshold | below the threshold | below the threshold | below the threshold | below the threshold | 4.22 | below the threshold | below the threshold | below the threshold | below the threshold | below the threshold | below the threshold | below the threshold | below the threshold | 4.2 | pKd (TJP3_1, O95049): below the threshold |
| NYWPGKETQL [SLCO1C1, Q9NYB5] | 5.35 | below the threshold | below the threshold | below the threshold | below the threshold | below the threshold | below the threshold | below the threshold | below the threshold | below the threshold | 4.98 | below the threshold | 4.56 | 4.83 | below the threshold | below the threshold | below the threshold | below the threshold | below the threshold | 5.4 | pKd (TJP3_1, O95049): below the threshold |
| HIVEALETDV [PBK, Q96KB5] | below the threshold | below the threshold | below the threshold | below the threshold | below the threshold | below the threshold | below the threshold | below the threshold | below the threshold | below the threshold | below the threshold | below the threshold | below the threshold | below the threshold | below the threshold | below the threshold | below the threshold | below the threshold | below the threshold | 4.35 | pKd (TJP3_1, O95049): below the threshold |
